{
  "source": "paper PMC6349045",
  "key": {"[1]": {"target": "T1, NP220 DNA-binding domain (NP220DB) (UniProt Q14966 1240-1478)", "T1 sequence": "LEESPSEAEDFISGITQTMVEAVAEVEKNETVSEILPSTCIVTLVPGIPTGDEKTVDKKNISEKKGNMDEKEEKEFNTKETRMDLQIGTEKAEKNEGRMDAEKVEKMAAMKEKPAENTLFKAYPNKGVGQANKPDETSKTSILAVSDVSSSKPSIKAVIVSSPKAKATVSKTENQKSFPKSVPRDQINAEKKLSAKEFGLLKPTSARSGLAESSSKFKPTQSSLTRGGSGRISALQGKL", "experiment": "EMSA"}, "[2]": {"target": "T1, NP220 DNA-binding domain (NP220DB)", "experiment": "competition"}, "[3]": {"target": "T1, NP220 DNA-binding domain (NP220DB)", "experiment": "competition", "remark": "listed apart in the source"}},
  "data": [
    {"binder": "Bio-DNA84 (MLV U3 LTR fragment) (dsDNA) DNA 1: AGGATATCTGTGGTAAGCAGTTCCTGCCCCGGCTCAGGGCCAAGAACAGATGGTCCCCAGATGCGGTCCAGCCCTCAGCAGTTT DNA 2: AAACTGCTGAGGGCTGGACCGCATCTGGGGACCATCTGTTCTTGGCCCTGAGCCGGGGCAGGAACTGCTTACCACAGATATCCT", "values": [
      {"measurement": "binding result", "setting": "[1]", "value": "binds"}
    ]},
    {"binder": "DNA84 (unlabeled) (dsDNA) DNA 1: AGGATATCTGTGGTAAGCAGTTCCTGCCCCGGCTCAGGGCCAAGAACAGATGGTCCCCAGATGCGGTCCAGCCCTCAGCAGTTT DNA 2: AAACTGCTGAGGGCTGGACCGCATCTGGGGACCATCTGTTCTTGGCCCTGAGCCGGGGCAGGAACTGCTTACCACAGATATCCT", "values": [
      {"measurement": "binding result", "setting": "[2]", "value": "binds"}
    ]},
    {"binder": "DNA72 (NP220 sites deleted) (dsDNA) DNA 1: AGGATATCTGTGGTAAGCAGTTCCTGCTCAGGGCCAAGAACAGATGGTATGCGGTCCAGCCCTCAGCAGTTT DNA 2: AAACTGCTGAGGGCTGGACCGCATACCATCTGTTCTTGGCCCTGAGCAGGAACTGCTTACCACAGATATCCT", "values": [
      {"measurement": "binding result", "setting": "[3]", "value": "no binding"}
    ]}
  ]
}
